The target in this data set is T1, DcuR-His6 (Escherichia coli O157:H7 EDL933?) (UniProt P0AD02).
T1 sequence: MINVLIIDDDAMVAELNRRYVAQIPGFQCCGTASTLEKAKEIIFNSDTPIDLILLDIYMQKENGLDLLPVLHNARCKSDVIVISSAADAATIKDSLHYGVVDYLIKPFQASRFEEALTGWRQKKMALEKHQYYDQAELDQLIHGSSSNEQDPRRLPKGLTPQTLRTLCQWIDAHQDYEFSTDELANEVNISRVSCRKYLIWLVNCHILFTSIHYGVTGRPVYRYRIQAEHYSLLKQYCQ
Put plainly: EMSA.

As for “AGATTCATCTGCAGGCTCTGAAGTAAGTATACGTGTGAATATTATTGCTTGAAAAAGCGTATTGGATAATATATACAGTATATGTACTTTATGTACATTGCAACTATTTAAATAATATAATAGTTGCCTATGGGATAATTTGGTTATTTATAACCAGGTAAATGTCTAAATTAGACAAAAGGAGAAAGATCAATGGAAGCAGCAAATTTAAGTCCTTCTGGTGCAGTAATG (double strand) [PLEE2/3]”, the binding result is reported as “no binding”.
The entry for “CATTAGCCATTGGAAACTCACGTAATCATTAATTATGAATATTCCATTAAATAGTACTGTACAACAGCTTCCTTTCTACTCTATTCTTAGACGATGTAAGTTCACCATATTTTTTCTCATTGTTCAACCACCAGGATGAATAAAATTTAAAAATGTTATCCTCATATAAAATAAAACTTCTCAATGGTGCGATGCG (double strand) [PLEE4]” is “no binding”.

The values above are taken from publication PMC10636207.
